US20230189818A1, “RNA-BASED CONTROL OF BOTRYTIS” (priority 2021, published 2023)

Legend:
B. cinerea = test: Open-air field trial on snap bean (Example 4.3, AUDPC of % disease severity); format: in vivo, Botrytis cinerea; settings: Switch 525 g ai/ha, GS349 20 and 40, GS2280 10 and 40, GS2303 10, 20 and 40, GS2297 20 g ai/ha, FIG. 9
Method: RNAi compositions, each containing a dsRNA comprising a trigger sequence (GS349, GS2280, GS2303, or GS2297) described herein were evaluated for ability to control botrytis on snap bean in open-air filed trials. All test samples were formulated with RO water, propylene glycol, a linear alcohol ethoxylate, a lignosulfanate, sodium citrate dihydate, a polyacrylic acid polymer, two biocide compositions, anhydrous citric acid, and an antifoam, all of which are readily commercially available. Formulation samples were tank mixed with a standard adjuvant, the non-ionic surfactant, Activator 90 0.125%v/v. Compositions were tested at concentrations of 10, g ai/ha, 20 g ai/ha, and 40 g ai/ha. Positive controls were a chemical standard, Switch 525 g ai/ha and a biological standard, Double Nickel LC 9.4 I/ha, both of which were also tank mixed with Activator 90 0.125% v/v. As above, an untreated check was used as a negative control.
Compositions were applied to snap bean plants using a small plot sprayer delivering 50 gallons of water per acre. A total of three applications were used for each sample and positive control. Disease state was evaluated beginning 8 days after the first application and ending 37 days after the third and final application. Percent Disease Severity was assessed and AUDPC was calculated in the same manner as noted in Example 4.1.

[1] = tested on: Botrytis cinerea isolate (B05.10); test: Detached leaf assay (tomato leaflets, lesion size); format: in vivo; settings: five days post inoculation, vs untreated inoculated control
Procedure, shortened: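 Tomato (Brandywine) detached lateral leaflets were sprayed with treatment in 0.03% Silwet L-77 24 h before inoculation. Two 10 μL drops of 1×10^5 conidia/mL in 7% grape juice were applied per leaflet, which was then incubated at 23 °C, ~75% RH, 12/12 light. Lesion diameter was measured at 5 DPI against the untreated inoculated control, ten replicates.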

B1: GS2297: dsRNA trigger targeting B. cinerea Bcrpb5 (XM_024693733.1); trigger SEQ ID NO 23, RNA 35, reverse complement 47 (nucleic acid, listed as Botrytis cinerea)
sense: UGCACCAUCAGGUCCCGCUCAAAAGAUUAUUCCCGCUGUCGCAUCCGAGACAAGAAUCGAGACCUUCGUCGAGCAAGAUUUACUUGUCAAUAUUACACAUCAUGAAUUGGUUCCCAAGCAUGUUUUGUUAAGUAGAGAAGAGAGGGCCAAGUUGUUGUCAAGAUAUAGAUUGAAGGAUACUCAACUCCCACGUAUUCAGGCUGCGGAUCCAGUUGCAAAAUAUUUGGGAUUGAGAAGAGGGCAGGUCGUUAAGAUUAUCAGAAAGUCGGAAACUGCUGGUCGUUAUGCCAGUUACAGAUUGUGCGUAUAAUGGAGCUGGAGGGUAGAUGAUUUGGUGUUAAUAACUAGGGAGUUUCUUGGGAAAAAUUUGCAUAUUUGGGGAAGGCGUAAUAGGCUGGAAGAAAGACUGAGGAUGAGAUUGUCUAUUUUGGCUUUCCAGGAAGCAAUACUUUGAGACAUGAAAUUUGAUAUUAAAUUUCUUGUUCUGUAUAUUUCUGAUAGUUUCAGAGCUUUUCAAUAAGAUCUAUUCUACAGUUUUAAGAAUCCAGACUCACCCUUUGAGAAGCUCAUACAAAGUUCCUUCCUA
antisense: UAGGAAGGAACUUUGUAUGAGCUUCUCAAAGGGUGAGUCUGGAUUCUUAAAACUGUAGAAUAGAUCUUAUUGAAAAGCUCUGAAACUAUCAGAAAUAUACAGAACAAGAAAUUUAAUAUCAAAUUUCAUGUCUCAAAGUAUUGCUUCCUGGAAAGCCAAAAUAGACAAUCUCAUCCUCAGUCUUUCUUCCAGCCUAUUACGCCUUCCCCAAAUAUGCAAAUUUUUCCCAAGAAACUCCCUAGUUAUUAACACCAAAUCAUCUACCCUCCAGCUCCAUUAUACGCACAAUCUGUAACUGGCAUAACGACCAGCAGUUUCCGACUUUCUGAUAAUCUUAACGACCUGCCCUCUUCUCAAUCCCAAAUAUUUUGCAACUGGAUCCGCAGCCUGAAUACGUGGGAGUUGAGUAUCCUUCAAUCUAUAUCUUGACAACAACUUGGCCCUCUCUUCUCUACUUAACAAAACAUGCUUGGGAACCAAUUCAUGAUGUGUAAUAUUGACAAGUAAAUCUUGCUCGACGAAGGUCUCGAUUCUUGUCUCGGAUGCGACAGCGGGAAUAAUCUUUUGAGCGGGACCUGAUGGUGCA
B. cinerea
  Disease state compared to treatment with the chemical standard (AUDPC): no significant difference
[1]; 30 ppm
  Average % Reduction in Lesion Size: 27.63%
[1]; 50 ppm
  Average % Reduction in Lesion Size: 24.35%
